Reference: publication PMC10033678, “The RRM-mediated RNA binding activity in T. brucei RAP1 is essential for VSG monoallelic expression”

How the values were obtained:
[1] = target: T1, TbRAP1 639-733 (RRM) (Trypanosoma brucei) (UniProt C1JEX5); assay: fluorescence polarization; conditions: EMSA: 20 mM HEPES pH 7.9, 235 mM KCl, 1 mM MgCl2, 0.1 mM EDTA, 100 ng/ul BSA, 5% glycerol, 1 mM DTT, room temp 30 min; FP: 20 mM sodium phosphate pH 7.0, 50 mM …
T1 sequence: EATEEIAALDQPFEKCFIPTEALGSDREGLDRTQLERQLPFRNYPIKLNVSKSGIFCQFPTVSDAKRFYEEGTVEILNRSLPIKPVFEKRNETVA

[2] = target: T2, TbRAP1 639-761 (RRM+DB) (Trypanosoma brucei, UniProt C1JEX5 639-761); assay: EMSA; EMSA: 20 mM HEPES pH 7.9, 235 mM KCl, 1 mM MgCl2, 0.1 mM EDTA, 100 ng/ul BSA, 5% glycerol, 1 mM DTT, room temp 30 min; FP: 20 mM sodium phosphate pH 7.0, 50 mM; conditions: protein: recombinant, tags: none (TrxA-His6 removed by 3C for EMSA)
[3] = target: T3, TbRAP1 639-733 (RRM) (Trypanosoma brucei, UniProt C1JEX5 639-733); assay: as above; conditions: protein: recombinant; tags: none (TrxA-His6 removed by 3C for EMSA); label: 32P end label
[4] = target: T4, TbRAP1 639-733 2FL (Trypanosoma brucei, UniProt C1JEX5 639-733, F655L;F694L); assay: as above; conditions: protein: recombinant, tags: none (TrxA-His6 removed by 3C for EMSA)
[5] = target: TH6-TbRAP1 639-761 (Trypanosoma brucei, UniProt C1JEX5 639-761); assay: as above; conditions: protein: recombinant; tags: TrxA-His6; label: 32P
[6] = target: TH6-TbRAP1 639-761 5A (Trypanosoma brucei, UniProt C1JEX5 639-761, R737A;K738A;R739A;R740A;R741A); assay: as above; conditions: protein: recombinant, tags: TrxA-His6
[7] = target: TbRAP1 639-733 2FQ (Trypanosoma brucei, UniProt C1JEX5 639-733, F655Q;F694Q); assay: as above; conditions: protein: recombinant, tags: none (TrxA-His6 removed by 3C)
[8] = target: TbRAP1 639-733 2FA (Trypanosoma brucei, UniProt C1JEX5 639-733, F655A;F694A); assay: as above; conditions: protein: recombinant, tags: none (TrxA-His6 removed by 3C)
[9] = target: TH6-TbRAP1 639-733 (Trypanosoma brucei, UniProt C1JEX5 639-733); assay: as above; conditions: protein: recombinant; tags: TrxA-His6; label: 32P
[10] = target: T2, TbRAP1 639-761 (RRM+DB); assay: fluorescence polarization; EMSA: 20 mM HEPES pH 7.9, 235 mM KCl, 1 mM MgCl2, 0.1 mM EDTA, 100 ng/ul BSA, 5% glycerol, 1 mM DTT, room temp 30 min; FP: 20 mM sodium phosphate pH 7.0, 50 mM; conditions: protein: recombinant; tags: none (TrxA-His6 removed by 3C for EMSA); label: 5' 6-FAM
[11] = target: TbRAP1 639-761 5A (Trypanosoma brucei, UniProt C1JEX5 639-761, R737A;K738A;R739A;R740A;R741A); assay: as above; conditions: protein: recombinant; label: 5' 6-FAM
[12] = target: TH6-TbRAP1 639-761 2FA&5A (Trypanosoma brucei, UniProt C1JEX5 639-761, F655A;F694A;R737A;K738A;R739A;R740A;R741A); assay: EMSA; EMSA: 20 mM HEPES pH 7.9, 235 mM KCl, 1 mM MgCl2, 0.1 mM EDTA, 100 ng/ul BSA, 5% glycerol, 1 mM DTT, room temp 30 min; FP: 20 mM sodium phosphate pH 7.0, 50 mM; conditions: protein: recombinant; tags: TrxA-His6
[13] = target: T2, TbRAP1 639-761 (RRM+DB); assay: NMR titration; EMSA: 20 mM HEPES pH 7.9, 235 mM KCl, 1 mM MgCl2, 0.1 mM EDTA, 100 ng/ul BSA, 5% glycerol, 1 mM DTT, room temp 30 min; FP: 20 mM sodium phosphate pH 7.0, 50 mM; conditions: protein: recombinant; tags: none (TrxA-His6 removed by 3C for EMSA)
[14] = target: T4, TbRAP1 639-733 2FL; assay: NMR titration; 3x molar excess RNA; EMSA: 20 mM HEPES pH 7.9, 235 mM KCl, 1 mM MgCl2, 0.1 mM EDTA, 100 ng/ul BSA, 5% glycerol, 1 mM DTT, room temp 30 min; FP: 20 mM sodium phosphate pH 7.0, 50 mM; conditions: protein: recombinant; tags: none (TrxA-His6 removed by 3C for EMSA)
[15] = target: T3, TbRAP1 639-733 (RRM); assay: NMR titration; EMSA: 20 mM HEPES pH 7.9, 235 mM KCl, 1 mM MgCl2, 0.1 mM EDTA, 100 ng/ul BSA, 5% glycerol, 1 mM DTT, room temp 30 min; FP: 20 mM sodium phosphate pH 7.0, 50 mM; conditions: protein: recombinant, tags: none (TrxA-His6 removed by 3C for EMSA)

UGAUAUAUUUUAACAC [6-FAM-16-VSG-UTR] gave a Kd [1] of 929 µM.

B1: 35-VSG-UTR (ssRNA)
RNA: UUGCUACUUGAAAACUUUUUGAUAUAUUUUAACAC
B1: binds ([2]; label: 32P end label); binds [3].

B2: 170-no-VSG (ssRNA)
RNA: GGGCGAAUUGGGUACCGGGCCCCCCCUCGAGGUCGACGGUAUCGAUAAGCUUGAUAUCGAAUUCAAUUCCAAAGAAGCCAUGCGCCGUGCAGAGCAGGAAAAAGCCACACGGGAACUCCUCCUGCAACAAACUUCAGCACCACAUGCAUCAUCAGUUACAUCCGGGAUCC
B2: no binding ([4]; label: 32P); binds [5]; binds ([2]; label: 32P). B2: binds ([6]; label: 32P); no binding ([7]; label: 32P); no binding ([8]; label: 32P). B2: binds [9].

B3: 80-dsDNA (dsDNA)
DNA 1: CGTGCAGAGCAGGAAAAAGCCACACGGGAACTCCTCCTGCAACAAACTTCAGCACCACATGCATCATCAGTTACATCCGG
DNA 2: CCGGATGTAACTGATGATGCATGTGGTGCTGAAGTTTGTTGCAGGAGGAGTTCCCGTGTGGCTTTTTCCTGCTCTGCACG
B3: binds ([2]; label: 32P Klenow, blunt).

B4: 6-FAM-16-VSG-UTR (ssRNA)
RNA: UGAUAUAUUUUAACAC
For B4, the Kd [10] was about 258 µM and the Kd [11] was about 969 µM.

B5: 170-VSG-UTR (ssRNA)
RNA: GGGCGAAUUGGGUACCGGGCCCCCCCUCGAGGUCGACGGUAUCGAUAAGCUUGAUAUCGAAUUCAAUUCAUUUCCCCCCUCAAAUUUCCCCCCUCCUUUUAAAAUUUUCCUUGCUACUUGAAAACUUUUUGAUAUAUUUUAACACCAAAACCAGCCGAGAUUUGGGAUCC
With B5 the binding result [4] was “no binding”, the Kd [2] was about 0.173 µM and the binding result [12] was “no binding”. B5: binds [6]; no binding [7]; no binding [8].

B6: 34-VSG-UTR (ssRNA)
RNA: AAAACUUUUUGAUAUAUUUUAACACCAAAACCAG
B6: binds [13]; no binding [14].

B7: (UUAGGG)2 (ssRNA)
RNA: UUAGGGUUAGGG
B7: no binding [15].

B8: 35-random (ssRNA)
RNA: ACAGACCACUACAAGAUACACAGUACAACCAACCA
B8: no binding ([15]; label: 32P end label in EMSA).
